Laboratory results published in US20030229005A1 (BIOZYME, published 2003).
*1 amine or outer side, *2 acyl side, *3 side chain or, on linkers, in order; H or OH if unused. [ ]: non-standard residue; d: D form. The star is where a group is joined. Dnp = O=[N+]([O-])c1ccc(*)c([N+](=O)[O-])c1; C(Me) = CSC[C@H](N[*:1])C(=O)[*:2]

T1: human Gelatinase-A (human, UniProt P08253 110-660, limits assumed)
T1 sequence (looked up): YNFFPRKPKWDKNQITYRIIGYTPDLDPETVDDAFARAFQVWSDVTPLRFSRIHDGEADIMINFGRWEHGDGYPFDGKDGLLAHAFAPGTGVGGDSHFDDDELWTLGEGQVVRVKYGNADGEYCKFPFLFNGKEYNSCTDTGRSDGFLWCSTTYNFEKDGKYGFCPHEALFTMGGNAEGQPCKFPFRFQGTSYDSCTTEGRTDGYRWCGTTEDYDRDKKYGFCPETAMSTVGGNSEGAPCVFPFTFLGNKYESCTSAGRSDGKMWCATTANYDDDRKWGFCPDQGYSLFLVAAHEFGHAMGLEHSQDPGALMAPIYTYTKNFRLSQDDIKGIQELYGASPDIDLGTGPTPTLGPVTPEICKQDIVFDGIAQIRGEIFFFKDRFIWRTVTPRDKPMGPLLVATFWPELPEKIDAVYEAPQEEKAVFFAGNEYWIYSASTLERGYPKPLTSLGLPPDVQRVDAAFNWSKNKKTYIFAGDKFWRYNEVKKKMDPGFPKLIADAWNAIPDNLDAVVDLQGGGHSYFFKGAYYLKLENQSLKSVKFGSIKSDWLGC

T2: collagenase 1 (UniProt P03956 100-469, limits assumed)
T2 sequence (looked up): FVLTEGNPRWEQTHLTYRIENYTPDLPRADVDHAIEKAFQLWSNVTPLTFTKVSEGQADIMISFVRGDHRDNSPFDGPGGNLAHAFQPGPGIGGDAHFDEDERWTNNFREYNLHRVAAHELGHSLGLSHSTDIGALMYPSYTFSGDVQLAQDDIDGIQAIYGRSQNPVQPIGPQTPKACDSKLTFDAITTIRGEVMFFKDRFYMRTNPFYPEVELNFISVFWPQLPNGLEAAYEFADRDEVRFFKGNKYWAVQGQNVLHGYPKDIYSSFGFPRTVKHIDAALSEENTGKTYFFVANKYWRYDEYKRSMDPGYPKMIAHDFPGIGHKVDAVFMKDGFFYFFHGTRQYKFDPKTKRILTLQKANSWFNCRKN


Columns and labels:
Assay in all cases: cell-based or functional assay
[1] = target: stromelysin 1 (UniProt P08254 100-477, limits assumed)
stromelysin 1, sequence (P08254 100-477 limits assumed): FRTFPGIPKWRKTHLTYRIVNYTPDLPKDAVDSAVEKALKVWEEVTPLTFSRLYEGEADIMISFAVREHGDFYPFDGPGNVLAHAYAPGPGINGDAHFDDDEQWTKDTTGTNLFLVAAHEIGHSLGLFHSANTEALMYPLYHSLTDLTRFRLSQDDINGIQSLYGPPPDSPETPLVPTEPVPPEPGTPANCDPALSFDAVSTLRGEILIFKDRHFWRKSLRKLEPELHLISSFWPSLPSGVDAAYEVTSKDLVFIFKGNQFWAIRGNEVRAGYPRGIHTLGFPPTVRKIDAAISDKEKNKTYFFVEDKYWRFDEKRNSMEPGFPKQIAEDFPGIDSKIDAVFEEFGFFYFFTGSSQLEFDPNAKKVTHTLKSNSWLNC

[2] = target: gelatinase B (UniProt P14780 107-707, limits assumed)
gelatinase B, sequence (P14780 107-707 limits assumed): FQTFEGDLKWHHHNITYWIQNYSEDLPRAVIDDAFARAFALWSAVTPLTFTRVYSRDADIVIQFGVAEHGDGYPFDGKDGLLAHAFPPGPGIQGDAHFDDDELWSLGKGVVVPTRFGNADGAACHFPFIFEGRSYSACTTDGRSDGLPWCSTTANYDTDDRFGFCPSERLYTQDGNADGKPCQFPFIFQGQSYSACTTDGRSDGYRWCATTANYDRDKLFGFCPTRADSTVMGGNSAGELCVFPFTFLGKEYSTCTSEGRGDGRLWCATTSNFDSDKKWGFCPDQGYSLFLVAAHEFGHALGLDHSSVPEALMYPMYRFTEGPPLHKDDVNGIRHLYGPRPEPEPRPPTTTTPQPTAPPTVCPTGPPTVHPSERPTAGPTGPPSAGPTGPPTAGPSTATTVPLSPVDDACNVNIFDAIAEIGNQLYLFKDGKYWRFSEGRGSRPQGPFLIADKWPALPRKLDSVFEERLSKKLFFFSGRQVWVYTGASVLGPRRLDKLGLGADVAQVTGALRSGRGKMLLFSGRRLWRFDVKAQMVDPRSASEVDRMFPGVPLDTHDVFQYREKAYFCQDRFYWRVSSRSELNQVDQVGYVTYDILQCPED

[3] = target: T1, human Gelatinase-A
[4] = target: T2, collagenase 1

Binder	Selectivity v. Coll-3 [1]	Selectivity v. Coll-3 [2]	Selectivity v. Coll-3 [3]	Selectivity v. Coll-3 [4]	also measured
Dnp-PINLHG-NH2 (SMILES CC[C@H](C)[C@H](NC(=O)[C@@H]1CCCN1c1ccc([N+](=O)[O-])cc1[N+](=O)[O-])C(=O)N[C@@H](CC(N)=O)C(=O)N[C@@H](CC(C)C)C(=O)N[C@@H](Cc1c[nH]cn1)C(=O)NCC(N)=O) [Dnp-PINLHG-NH2]	824 unitless	4 unitless	9 unitless	101 unitless	
Dnp-GPRPFRG-NH2 (SMILES N=C(N)NCCC[C@H](NC(=O)[C@H](Cc1ccccc1)NC(=O)[C@@H]1CCCN1C(=O)[C@H](CCCNC(=N)N)NC(=O)[C@@H]1CCCN1C(=O)CNc1ccc([N+](=O)[O-])cc1[N+](=O)[O-])C(=O)NCC(N)=O) [Dnp-GPRPFRG-NH2]		4 unitless	9 unitless	4200 unitless	
Dnp-GPMSYNG-NH2 (SMILES CSCC[C@H](NC(=O)[C@@H]1CCCN1C(=O)CNc1ccc([N+](=O)[O-])cc1[N+](=O)[O-])C(=O)N[C@@H](CO)C(=O)N[C@@H](Cc1ccc(O)cc1)C(=O)N[C@@H](CC(N)=O)C(=O)NCC(N)=O) [Dnp-GPMSYNG-NH2]		3 unitless	5 unitless	201 unitless	
Dnp-GPLSISG-NH2 (SMILES CC[C@H](C)[C@H](NC(=O)[C@H](CO)NC(=O)[C@H](CC(C)C)NC(=O)[C@@H]1CCCN1C(=O)CNc1ccc([N+](=O)[O-])cc1[N+](=O)[O-])C(=O)N[C@@H](CO)C(=O)NCC(N)=O) [Dnp-GPLSISG-NH2]		1 unitless	7 unitless	11 unitless	
Dnp-GPVNLHGR[C(Me)]-NH2 (SMILES CSC[C@H](NC(=O)[C@H](CCCNC(=N)N)NC(=O)CNC(=O)[C@H](Cc1c[nH]cn1)NC(=O)[C@H](CC(C)C)NC(=O)[C@H](CC(N)=O)NC(=O)[C@@H](NC(=O)[C@@H]1CCCN1C(=O)CNc1ccc([N+](=O)[O-])cc1[N+](=O)[O-])C(C)C)C(N)=O) [Dnp-…(Me)-NH2]	510 unitless	2 unitless	9 unitless	2120 unitless	
Dnp-PSGIHL-NH2 (SMILES CC[C@H](C)[C@H](NC(=O)CNC(=O)[C@H](CO)NC(=O)[C@@H]1CCCN1c1ccc([N+](=O)[O-])cc1[N+](=O)[O-])C(=O)N[C@@H](Cc1c[nH]cn1)C(=O)N[C@@H](CC(C)C)C(N)=O) [Dnp-PSGIHL-NH2]		2 unitless	2 unitless	1320 unitless	
Dnp-GPHPMRG-NH2 (SMILES CSCC[C@H](NC(=O)[C@@H]1CCCN1C(=O)[C@H](Cc1c[nH]cn1)NC(=O)[C@@H]1CCCN1C(=O)CNc1ccc([N+](=O)[O-])cc1[N+](=O)[O-])C(=O)N[C@@H](CCCNC(=N)N)C(=O)NCC(N)=O) [Dnp-GPHPMRG-NH2]	287 unitless	4 unitless	12 unitless	526 unitless	
Dnp-GPFGLKG-NH2 (SMILES CC(C)C[C@H](NC(=O)CNC(=O)[C@H](Cc1ccccc1)NC(=O)[C@@H]1CCCN1C(=O)CNc1ccc([N+](=O)[O-])cc1[N+](=O)[O-])C(=O)N[C@@H](CCCCN)C(=O)NCC(N)=O) [Dnp-GPFGLKG-NH2]	1380 unitless	3 unitless	26 unitless	408 unitless	
Dnp-PLGMRG-NH2 (SMILES CSCC[C@H](NC(=O)CNC(=O)[C@H](CC(C)C)NC(=O)[C@@H]1CCCN1c1ccc([N+](=O)[O-])cc1[N+](=O)[O-])C(=O)N[C@@H](CCCNC(=N)N)C(=O)NCC(N)=O) [Dnp-PLGMRG-NH2]		1 unitless	2 unitless	73 unitless	
Dnp-GPVNLHG[C(Me)]-NH2 (SMILES CSC[C@H](NC(=O)CNC(=O)[C@H](Cc1c[nH]cn1)NC(=O)[C@H](CC(C)C)NC(=O)[C@H](CC(N)=O)NC(=O)[C@@H](NC(=O)[C@@H]1CCCN1C(=O)CNc1ccc([N+](=O)[O-])cc1[N+](=O)[O-])C(C)C)C(N)=O) [Dnp-GPVNLHGC(Me)-NH2]	770 unitless	3 unitless	15 unitless	1390 unitless	
Dnp-DEGPMGLK[C(Me)]YLG-NH2 (SMILES CSCC[C@H](NC(=O)[C@@H]1CCCN1C(=O)CNC(=O)[C@H](CCC(=O)O)NC(=O)[C@H](CC(=O)O)Nc1ccc([N+](=O)[O-])cc1[N+](=O)[O-])C(=O)NCC(=O)N[C@@H](CC(C)C)C(=O)N[C@@H](CCCCN)C(=O)N[C@@H](CSC)C(=O)N[C@@H](Cc1ccc(O)cc1)C(=O)N[C@@H](CC(C)C)C(=O)NCC(N)=O) [Dnp-…(Me)YLG-NH2]	468 unitless	4 unitless	9 unitless	452 unitless	
Dnp-GPLGMRG-NH2 (SMILES CSCC[C@H](NC(=O)CNC(=O)[C@H](CC(C)C)NC(=O)[C@@H]1CCCN1C(=O)CNc1ccc([N+](=O)[O-])cc1[N+](=O)[O-])C(=O)N[C@@H](CCCNC(=N)N)C(=O)NCC(N)=O) [Dnp-GPLGMRG-NH2]					Selectivity v. Coll-3, + 1:1 Gelatin [2]: 5 unitless; Selectivity v. Coll-3, + 1:4 Gelatin [2]: 5 unitless; Selectivity v. Coll-3, + 1:16 Gelatin [2]: 13 unitless; Selectivity v. Coll-3, + 1:64 Gelatin [2]: 13 unitless; Selectivity v. Coll-3, + 1:256 Gelatin [2]: 18 unitless; Selectivity v. Coll-3, + H2O [2]: 2 unitless; Selectivity v. Coll-3, + 1:1 Gelatin [3]: 41 unitless; Selectivity v. Coll-3, + 1:4 Gelatin [3]: 46 unitless; Selectivity v. Coll-3, + 1:16 Gelatin [3]: 84 unitless; Selectivity v. Coll-3, + 1:64 Gelatin [3]: 69 unitless; Selectivity v. Coll-3, + 1:256 Gelatin [3]: 73 unitless; Selectivity v. Coll-3, + H2O [3]: 6 unitless; Selectivity v. Coll-3, + 1:1 Gelatin [4]: 91 unitless; Selectivity v. Coll-3, + 1:4 Gelatin [4]: 96 unitless; Selectivity v. Coll-3, + 1:16 Gelatin [4]: 215 unitless; Selectivity v. Coll-3, + 1:64 Gelatin [4]: 236 unitless; Selectivity v. Coll-3, + 1:256 Gelatin [4]: 378 unitless; Selectivity v. Coll-3, + H2O [4]: 245 unitless
Dnp-GPINLHG-NH2 (SMILES CC[C@H](C)[C@H](NC(=O)[C@@H]1CCCN1C(=O)CNc1ccc([N+](=O)[O-])cc1[N+](=O)[O-])C(=O)N[C@@H](CC(N)=O)C(=O)N[C@@H](CC(C)C)C(=O)N[C@@H](Cc1c[nH]cn1)C(=O)NCC(N)=O) [Dnp-GPINLHG-NH2]	1110 unitless	15 unitless	28 unitless	180 unitless	
Dnp-GPLQMRG-NH2 (SMILES CSCC[C@H](NC(=O)[C@H](CCC(N)=O)NC(=O)[C@H](CC(C)C)NC(=O)[C@@H]1CCCN1C(=O)CNc1ccc([N+](=O)[O-])cc1[N+](=O)[O-])C(=O)N[C@@H](CCCNC(=N)N)C(=O)NCC(N)=O) [Dnp-GPLQMRG-NH2]	311 unitless	1 unitless	15 unitless	290 unitless	
